Source: the supplement of paper PMC12042874
± gives the uncertainty stated by the source.

Assay: amyloid nucleation score (Sup35N fusion, yeast selection) (log enrichment); library NNK2; higher = more nucleation; inactive = no reads after selection
Summary of the method: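 DiMSum was used to calculate nucleation scores as log enrichment of output over input reads, centred on the mode score of non-aggregating sequences. Sequences with fewer than 100 input reads were not scored. Input and output came from Illumina sequencing of plasmid inserts in psi-negative yeast expressing peptides of 20 random codons fused to Sup35N, induced 24 hours with 100 μM copper sulfate and then grown 7 days at 30°C on medium lacking adenine and uracil.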

Substance | amyloid nucleation score
SAVSPVSVADR | -0.656 ± 1.1
RSDVTLDNIQMWA | -1.38 ± 0.64
LCSRSYGFRFYFSSGAQSVR | 0.541 ± 0.66
RNGVNRLELGFLIETLHNAC | 4.622 ± 0.038
IFLKWLYKSFDYNI | 0.973 ± 0.23
CLVYVGRVPSRIGDHRITAY | 0.966 ± 0.38
LRQYKRALAVGLDWFPSVLR | 0.113 ± 0.8
GPLFRFFRHRAFLQSTFSA | -0.342 ± 0.24
LIPIRALRHYFRFIVCV | -0.142 ± 0.61
CFGMLS | -0.679 ± 1.1
DRGYVTD | 1.14 ± 0.4
MENGHCYFCQCTKSH | 2.85 ± 0.1
EIMCLHKNALCFQCSTSGCA | 7.52 ± 0.046
LKYVLARCFRKCWYVLWTSA | -0.451 ± 0.54
LIGGLVSPISRYEVGWQDAV | -0.213 ± 0.62
YVSMLTNLTDLTSM | 0.572 ± 0.33
MLFSNVLLCKLCIFA | 6.96 ± 0.055
TWRNYS | -0.279 ± 0.35
GMVEAR | 0.095 ± 0.46
ATTFKPAHLSRYMWLATYPV | 0.765 ± 0.41
IPYSSPS | inactive
LILNLVFFVIPDTVFYTSGL | 6.732 ± 0.058

Substance | amyloid nucleation score
PVRCMIAHNCLIFWLVWTVV | -0.154 ± 0.25
WKKSMKIVNKYAVSLPDVGR | 0.29 ± 0.51
CSNSFLI | -0.868 ± 1.1
DLNYFSTMGEVLYMFSVLTY | -0.08 ± 1
FFGVSWRWARNFCYDMGQVY | -0.177 ± 1
IPRCKKW | 3.22 ± 0.1
IFRIWRTRGRRSRFVSIEIG | -0.802 ± 0.41
ASLHWKMFLMAFLTASIVHA | -0.337 ± 0.55
TALATDTSFRRSRRQTNQIF | 0.706 ± 0.54
IWYLLFMVDLVKCHTMKTNR | 0.686 ± 0.12
MQMLWYTMFFNSSRLVC | -1.58 ± 0.61
ISRVSGGQTLPSGLVMG | -0.326 ± 0.45
YYFWSTFGSYNYLIFCYSIL | -0.656 ± 1.1
IPSCRVFICRGNNVFRVPIT | -1.06 ± 1.1
SNLSLMFLLRVSIGDKKEEE | 7.555 ± 0.034
KTGESMVNPIARMWLR | 1.51 ± 0.17
PWLDIFNVACTSRGSLVWYE | -0.855 ± 1.1
YDKSYFVFFNP | 1.36 ± 0.27
RDMWKVNHGNTACIGSYRSV | 0.671 ± 0.35
SWEKQ | inactive
TSTTYRLYKLGQFLARPANQ | -0.637 ± 1.1
FTFILLGYVWRLLMYIPGMR | 0.236 ± 1.1

Substance | amyloid nucleation score
VLVTRIEWMGESTCMSLVNY | 2.69 ± 0.12
SGWSNFVLCILHTTTGMKRH | 3.95 ± 0.071
ICSAPGYL | inactive
WEDKVAGSMGAWDDLG | 0.791 ± 0.67
GFRIGTLLGTMINSMNCSFI | 2.88 ± 0.12
PCIGSQFFYSFGGLIK | -0.736 ± 0.35
NRLLSVSEFAMDTRMRQEEA | 1.01 ± 0.36
IYTTYKRTFRS | -0.553 ± 1.1
CNLSFVGS | 0.287 ± 0.25
EDDVSYNSFSGQASLWKFPK | -0.818 ± 0.56
RVWSY | inactive
LRAWDYRISNSHTRLDIDFT | inactive
MEGVAK | 0.331 ± 0.8
TPIVGMLY | -0.477 ± 0.55
RTDMALALQ | 0.973 ± 0.34
VIKTFVILDVYAGLSCQC | 1.25 ± 0.34
YVRAGRVNVILCVSENCIGG | 8.27 ± 0.049
YWYASSSSNIWYPEVCKCPV | -0.77 ± 0.79
CFVVRE | 0.404 ± 0.46
VSRFYCKYYSAQWIRYGRAC | -0.544 ± 0.36
PNQISNA | -0.47 ± 1.1
LGRCSALGYIRISCTMKGAG | 0.21 ± 0.74

Substance | amyloid nucleation score
WQIGCLADIYSYLPDGNTVG | -0.389 ± 0.4
PPRGFFVAWIVDFRGAGLMG | -0.743 ± 0.48
NYCYLFLTYCWVQRMSEGFS | 2.88 ± 0.098
LASPGTRFSFGSLVACGVVQ | -0.178 ± 0.35
EPCNTNIK | -0.553 ± 0.29
ICSDFGPNSGYRHQWVCIGV | -0.023 ± 0.45
MSLSNDHSGAVWRRAFGYSE | 0.51 ± 0.51
FLGDWKTCKVTGACKLCYGG | -0.018 ± 0.42
MNFWILFQNLQHRCVQVTGR | 3.64 ± 0.068
VNAHLWYIFRVWDVKDRVVD | -0.315 ± 0.74
CEGCHATKYRVRSWS | 1.01 ± 0.31
RDIGKYRMYDLTKVRAITLT | -0.353 ± 0.35
RNSDGPLCSDGVVHFIRMLV | 0.001 ± 0.65
GESNMVYCLYQGTILSFAGW | 8.379 ± 0.04
IVGNGRMCLRELSRFCFVRC | 1.04 ± 0.28
DSWFEQCVVFWLKTNCPQQE | -0.069 ± 0.25
SEFGSNEYRDGLGVYYGST | -0.542 ± 0.33
IYFPP | -0.689 ± 0.4
NLMVHVFAAVMGINDLKC | 1.41 ± 0.18
CRSRT | 0.978 ± 0.28
FGKCYYLFVSYHYMLGLACT | -0.549 ± 1
